Measured values: patent publication US20210340524A1 (MIT, published 2021)

What was measured:
[1] = target: T1, anti-mCD19 IgG (clone 1D3); test: ELISA, titration with anti-mCD19 (1D3) IgG, OD(450nm); value printed beside the triangle curve
T1 construct: Anti-mouse CD19 IgG; also called 1D3 IgG; biotinylated 1D3 antibody

[2] = target: T2, FMC63 IgG; test: flow cytometry of yeast clones stained with 5 µM FMC63 IgG, alanine scan
T2 construct: biotinylated in the flow cytometry assays; also called FMC63 IgG antibody; biotinylated FMC63 IgG
T2 sequence (VH, as listed by the source, chain 1 of 2): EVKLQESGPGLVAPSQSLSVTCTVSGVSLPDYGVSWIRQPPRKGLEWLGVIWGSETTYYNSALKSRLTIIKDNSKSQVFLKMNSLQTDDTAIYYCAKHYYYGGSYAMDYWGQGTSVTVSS
T2 sequence (VL, as listed by the source, chain 2 of 2): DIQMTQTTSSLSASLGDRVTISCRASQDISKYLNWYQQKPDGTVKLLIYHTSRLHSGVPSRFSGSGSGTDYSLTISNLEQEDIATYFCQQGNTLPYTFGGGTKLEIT
Description: (§1) To determine the effect of amino acid position on binding to FMC63, an alanine mutagenesis experiment was performed were each amino acid was mutated to alanine and binding to FMC63 was assessed. Specifically, a representative mimotope, […] To assess the tolerance of additional alanine residues, one alanine or two alanine residues were inserted between the two cysteine residues (SEQ ID NOs: 52 and 53) to determine the impact the loop structure had on mimotope binding to FMC63. To generate mutations, two complementary oligos with the codon replaced at the desired site were denatured at 95° C. and annealed by slow cooling to 25° C. (decreasing by 0.5° C./second). The annealed oligos were treated with T4 PNK (T4 Polynucleotide Kinase) to add a terminal phosphate, and then ligated into digested pCT-CON2 vector. Positive clones having the correct oligo inserted were tested and transformed into competent EBY100 yeast cells. Following generation of mutated clones, flow cytometry was performed by staining the yeast with 5 μM FMC63 IgG antibody to measure binding of the mimotope (FIG. 11).

[3] = target: T2, FMC63 IgG; test: flow cytometry of yeast clones, titration with 0.01-1000 nM biotinylated FMC63 IgG, MFI (geometric mean)
From the text: (§2) In order to validate specific sequences, clones were isolated and measured for their affinity to FMC63. Specifically, a subset of mimotope clones were selected from the fixed library sequence described in Example 5.

[4] = target: T1, anti-mCD19 IgG (clone 1D3); test: ELISA, titration with anti-mCD19 (1D3) IgG, OD(450nm); value printed beside the circle curve
[5] = target: T2, FMC63 IgG; test: flow cytometry of yeast clones stained with 5 µM FMC63 IgG, tolerance of extra alanine residues
Description: as §1

[6] = target: T3, FMC63 scFv (biotinylated); test: flow cytometry of yeast clones, titration with biotinylated FMC63 scFv and streptavidin-PE, MFI (geometric mean)
T3 construct: also called biotinylated FMC63 scFv; FMC63-scFv monomer
T3 sequence (scFv, as listed by the source): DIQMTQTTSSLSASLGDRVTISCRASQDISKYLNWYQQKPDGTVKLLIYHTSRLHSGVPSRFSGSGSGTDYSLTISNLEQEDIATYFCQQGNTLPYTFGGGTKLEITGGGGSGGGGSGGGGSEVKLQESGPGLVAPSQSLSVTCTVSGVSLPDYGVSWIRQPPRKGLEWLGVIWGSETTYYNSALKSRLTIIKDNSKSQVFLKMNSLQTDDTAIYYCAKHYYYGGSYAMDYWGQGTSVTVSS
Description: The binding affinity of the isolated yeast clones to FMC63 was determined.

[7] = target: T2, FMC63 IgG; test: ELISA with FMC63 IgG; ELISA, not FACS titration
Description: Next, the affinity of the […] (SEQ ID NO: 5) mimotope to FMC63 was determined.

[8] = target: T2, FMC63 IgG; test: flow cytometry (MFI), yeast clone titrated with 0.01-1000 nM biotinylated FMC63 IgG; yeast-displayed clone, FACS titration 0.01-1000 nM biotinylated FMC63 IgG
From the text: as §2

[9] = target: T2, FMC63 IgG; test: flow cytometry (MFI), yeast clone titrated with 0.01-1000 nM biotinylated FMC63 IgG
From the text: as §2

[10] = target: T1, anti-mCD19 IgG (clone 1D3); test: ELISA, titration with anti-mCD19 (1D3) IgG, OD(450nm); value printed beside the square curve

T1 sequence (VH, as listed by the source, chain 1 of 2): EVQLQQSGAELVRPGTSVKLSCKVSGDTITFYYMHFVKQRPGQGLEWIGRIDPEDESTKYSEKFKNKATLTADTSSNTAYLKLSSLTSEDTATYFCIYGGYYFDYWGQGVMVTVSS
T1 sequence (VL, as listed by the source, chain 2 of 2): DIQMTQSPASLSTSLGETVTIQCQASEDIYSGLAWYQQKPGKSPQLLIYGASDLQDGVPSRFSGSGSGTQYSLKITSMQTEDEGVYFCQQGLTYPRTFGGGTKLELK

B1: 1D3 Mimotope Multimer H1 + E2 (SKLKGKSGPEIRVLMSRVFA) (peptide)
peptide: SKLKGKSGPEIRVLMSRVFA
notes: Chemically synthesized 20 amino acid fusion of two mimotopes; also called fusion mimotope
- Kd [1]: 6.7 nM

Binder: ALCPWSCREL (also called alanine at R1 (position 1))
- binding result [2]: no binding (tested: 5 µM)

Binder: RLCPASCREL (also called alanine at W5 (position 5))
- binding result [2]: no binding (tested: 5 µM)

Binder: RLCAWSCREL (also called alanine at P4 (position 4))
- binding result [2]: no binding (tested: 5 µM)

Binder: RICPWACVEL [FMC63 Mimotope(H8), yeast-displayed]
- EC50 (read off the curve) [3]: ~8 nM

Binder: RLCPWSAREL (also called alanine at C7 (position 7))
- binding result [2]: no binding (tested: 5 µM)

Binder: RLCPWDCREL [FMC63 Mimotope(F8), yeast-displayed]
- EC50 (read off the curve) [3]: ~10 nM

Binder: RLAPWSCREL (also called alanine at C3 (position 3))
- binding result [2]: no binding (tested: 5 µM)

Binder: SKLKGKSGPE (also called 10 amino acid mimotope) [1D3 mimotope H1 (SKLKGKSGPE) as used in the ELISA of FIG. 13]
- Kd [4]: 190 nM

B2: FMC63 Mimotope Mutant RLCPWSAACREL (SEQ ID NO: 52), yeast-displayed (peptide)
peptide: RLCPWSAACREL
notes: also called two alanine residues inserted between the two cysteine residues
- binding result [5]: no binding (tested: 5 µM)

Binder: RICPWNCKELPSPPRIFGNR [K-C2 mimotope, yeast-displayed]
- EC50 (read off the curve) [6]: ~10 nM

Binder: RHCPWNCSLL [high-affinity mimotope RHCPWNCSLL (SEQ ID NO: 5) as used in the ELISA of FIG. 7]
- Kd [7]: ~1400 nM

Binder: RHCPWNCSLL [FMC63 Mimotope (A1), yeast-displayed]
- Kd [8]: > 1000 nM

Binder: RICPWSCRAP [FMC63 Mimotope (D12), yeast-displayed]
- Kd [9]: > 1000 nM

B3: FMC63 Mimotope Mutant RLCPWSACREL (SEQ ID NO: 53), yeast-displayed (peptide)
peptide: RLCPWSACREL
notes: also called one alanine inserted between the two cysteine residues
- binding result [5]: no binding (tested: 5 µM)

B4: 1D3 Mimotope Multimer H1 + C11 (SKLKGKSGPEFHWFINVPPF) (peptide)
peptide: SKLKGKSGPEFHWFINVPPF
notes: as for B1
- Kd [10]: 102 nM

Binder: RICPWNCKEL (also called F12 mimotope) [FMC63 Mimotope(F12), yeast-displayed]
- EC50 (read off the curve) [6]: ~40 nM
